# Experimental data: article PMC11832770, “NADH-bound AIF activates the mitochondrial CHCHD4/MIA40 chaperone by a substrate-mimicry mechanism” (The EMBO Journal, 2025)
# B1: AIF-ΔC-loop (domain or fragment)
# chain: VGAGAYAYKTMKEDEKRYNERISGLGLTPEQKQKKAALSASEGEEVPQDKAPSHVPFLLIGGGTAAFAAARSIRARDPGARVLIVSEDPELPYMRPPLSKELWFSDDPNVTKTLRFKQWNGKERSIYFQPPSFYVSAQDLPHIENGGVAVLTGKKVVQLDVRDNMVKLNDGSQITYEKCLIATGGTPRSLSAIDRAGAEVKSRTTLFRKIGDFRSLEKISREVKSITIIGGGFLGSELACALGRKARALGTEVIQLFPEKGNMGKILPEYLSNWTMEKVRREGVKVMPNAIVQSVGVSSGKLLIKLKDGRKVETDHIVAAVGLEPNVELAKTGGLEIDSDFGGFRVNAELQARSNIWVAGDAACFYDIKLGRRRVEHHDHAVVSGRLAGENMTGAAKPYWHQSMFWSDLGPDVGYEAIGLVDSSLPTVGVFYGKGVIFYLRDKVVVGIVLWNIFNRMPIARKIIKDGEQHEDLNEVAKLFNIHED
# B2: Atto488-CHCHD4 (natural protein, human, UniProt Q8N4Q1 1-142, looked up)
# chain: MSYCRQEGKDRIIFVTKEDHETPSSAELVADDPNDPYEEHGLILPNGNINWNCPCLGGMASGPCGEQFKSAFSCFHYSTEEIKGSDCVDQFRAMQECMQKYPDLYPQEDEDEEEEREKKPAEQAEETAPIEATATKEEEGSS
# modifications: ATTO 488 (NHS ester) on the N-terminus
# notes: not shown: GB1-6X-His, N-terminal, cleaved
# Tests used:
# Conditions in all cases: both partners purified
# [1] = biological target: B2; test: MST; AIF allostery mutants titrated (1.8 nM–30 µM) into 100 nM Atto488-CHCHD4 without NADH; 25 mM HEPES pH 7.5, 150 mM NaCl, 0.01% Tween-20, 5 mM TCEP; 25 °C
# [2] = biological target: T1, AIF-R529A (human, UniProt O95831 78-613, R529A); test: as above
# T1 construct: Apoptosis-inducing factor (AIF), human, allostery mutant lacking the inner mitochondrial membrane tether; limits read as those of the wild type, 78-613; source: E. coli Rosetta2(DE3), purified (Ni-NTA, PreScission cleavage, subtractive Ni-NTA, Superdex 200)
# [3] = biological target: T2, AIF-W196A (human, UniProt O95831 78-613, W196A); test: as above
# T2 construct: Apoptosis-inducing factor (AIF), human, allostery mutant lacking the inner mitochondrial membrane tether; limits read as those of the wild type, 78-613; source: E. coli Rosetta2(DE3), purified (Ni-NTA, PreScission cleavage, subtractive Ni-NTA, Superdex 200)
# [4] = biological target: T3, AIF(78-613), wild type (human, UniProt O95831 78-613); test: MST; wild-type AIF titrated (1.8 nM–30 µM) into 100 nM Atto488-CHCHD4 with 300 µM NADH; 25 mM HEPES pH 7.5, 150 mM NaCl, 0.01% Tween-20, 5 mM TCEP; 25 °C
# T3 construct: Apoptosis-inducing factor (AIF), human, residues 78-613, lacking the inner mitochondrial membrane tether; Construct from Brosey et al 2016; also called Apoptosis-inducing factor; AIF + NADH; source: E. coli Rosetta2(DE3), purified (Ni-NTA, PreScission cleavage, subtractive Ni-NTA, Superdex 200)
Kd [1] [µM],Kd [2] [µM],Kd [3] [µM],Kd [4] [µM],Binder
4,,,,B1
,2.5,2.2,0.34,B2
